# ± gives the standard deviation.
# Assay: protein stability index of a GFP-peptide fusion (GPS, HEK-293T) (PSI 1-6); higher = more stable
# [1] = treatment: DMSO, c terminus: a fixed tail appended
# [2] = treatment: MLN4924 1 uM, 8 h, c terminus: a fixed tail appended
# [3] = treatment: DMSO, c terminus: native
# [4] = treatment: MLN4924 1 uM, 8 h, c terminus: native
# 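Note: 24-mer peptide tiles fused after GFP, lentivirally expressed, FACS-sorted into six equal bins by GFP/DsRed ratio, decoded by Illumina sequencing, PSI is the read-weighted mean bin number.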
Sequence,protein stability index [1],protein stability index [2],protein stability index [3],protein stability index [4]
RNRGRFSSTTGLFYSAEIICAIEY [PRKX],2.92 ± 0.47,2.91 ± 0.71,,
ERLCMGVDCTEIFGGNPRFLSLHR [ZNF263],2.54 ± 0.24,2.83 ± 0.13,,
REVAKELGLPYYETSVFDQFGIKD [RHOBTB1],3.18 ± 0.44,3.27 ± 0.29,,
KMPVLKAEASHYNSDLNNLLFCCQ [RHOBTB3],2.27 ± 0.41,2.29 ± 0.15,,
KLSEHLRYCDSILREMLSKKHAAY [BRD3],2.28 ± 0.21,2.14 ± 0.21,,
CSSARHPAWGHCFYRLYQDLETHR [SCNN1D],2.15 ± 0.17,2 ± 0.16,,
TILLDGQRVKLKLWDTSGQGRFCT [RAB40A],2.21 ± 0.13,2.21 ± 0.23,,
CKCGECTAPRTLPSCLACNRQCLC [SPRY1],4.05 ± 0.2,4.04 ± 0.14,,
LHPLLSGRLGRWLRSTRFSGSLDR [PCDHGC5],2.46 ± 0.23,2.45 ± 0.54,,
NIQANNCFSTGLSRRVLLTNVVTG [DCAF4],2.54 ± 0.26,2.63 ± 0.2,,
SLPSPSSSGHQNRRFSSEDLEDPL [FBF1],5.45 ± 0.3,5.46 ± 0.29,,
ECEKSALTPGFSDNAIMLFSPDFT [FAN1],3.49 ± 0.19,3.79 ± 0.26,,
KQLRQVTKEEGLALAREFSCPFFE [RIT1],3.27 ± 0.29,3.49 ± 0.33,,
DQCKINKQIYNLIHLDPRTREGFT [FEM1B],2.2 ± 0.35,2.52 ± 0.38,,
GVLVEDSNNHHLMLEASEWATIEG [ZBED1],4.2 ± 0.33,4.6 ± 0.32,,
EAQERELRKREKAEEKERRRKEYD [LRRC59],5.4 ± 0.18,5.49 ± 0.3,,
YRQSSFPHCSDLMPSGSEEKILRE [KCNA4],4.25 ± 0.29,4.26 ± 0.14,,
EQLEAEAQALRQELERQRRLLGSV [PBXIP1],4.04 ± 0.22,4.02 ± 0.21,,
TIKHPGGAGAEESELQAYIAQCQD [MCOLN1],5.27 ± 0.2,5.23 ± 0.31,,
TAPRQEKHERTHEIIPINVNNNYE [SPRY1],4.68 ± 0.15,4.61 ± 0.38,,
HWATGYSKSSHPLIRSLFHGFLFM [SOAT1],2.86 ± 0.7,2.49 ± 0.56,,
PAPKRGYSSEMKTEDELRVRHLEE [AUH],5.15 ± 0.48,4.75 ± 0.87,,
CFFRDHSYQEEAAMELKVEDPFYW [MOG],3.04 ± 0.23,3.02 ± 0.24,,

Sequence,protein stability index [1],protein stability index [2],protein stability index [3],protein stability index [4]
ALEEPEKMGLQERSETFLEVWGNA [DNAAF3],4.35 ± 0.22,4.32 ± 0.42,,
LEIELQSQLSMKAGLENTVAETEC [KRT13],5.02 ± 0.43,5.03 ± 0.11,,
IVADIELENVLDPDSFYELKSQPL [TFE3],2.65 ± 0.47,3.09 ± 0.51,,
NPFFAKTLQHWPHIIRIGDLKPTG [DENND6A],2.21 ± 0.34,2.07 ± 0.23,,
TSVLATLVVFAVLGFKANIMNEKC [SLC6A17],2.66 ± 0.12,3.31 ± 0.11,,
RTMCAVLGLVARQEDSGLRDHSVR [AUP1],2.43 ± 0.33,2.76 ± 0.26,,
MGQKVTGGIKTVDMRDPTYRPLKQ [SPSB1],3.89 ± 0.22,4.01 ± 0.28,,
RMPDEDSKIDHYVLEYRRTNFEGP [FSD1],3.78 ± 0.19,3.79 ± 0.14,,
ERSQVRGSAPPRATPGGGTGEAAR [PCDHGC5],5.13 ± 0.31,5.4 ± 0.18,,
AYEIMQTLHPDASANFHSLDDIYY [FUT8],2.85 ± 0.25,2.93 ± 0.37,,
RKLQKEQQRSKDLESRQRSLEQAN [TFE3],5.09 ± 0.3,5.11 ± 0.27,,
ELEGTEELCCVAELDNPMQQKWTK [C2CD2L],4.58 ± 0.45,4.77 ± 0.28,,
GSPDDSHPKDGPSPGGTLMDLSER [DLC1],5.54 ± 0.32,5.48 ± 0.28,,
AAMLSMVKYNSCADRPFSAPWWFW [POMT2],2.31 ± 0.25,2.1 ± 0.31,,
SVSWWGLSPALDLQAESPPVDPDS [DNAAF3],4.85 ± 0.12,4.944 ± 0.047,,
ACGDFFTACLTDRGIIMTFGSGSN [NEK8],2.66 ± 0.83,2.78 ± 0.64,,
QSQSLRDRARRFEEALRKNTEEQL [MTUS2],4.88 ± 0.28,5.06 ± 0.18,,
DKRHVEQKIQFKRETASLKLLPHQ [PDZK1],3.85 ± 0.31,3.8 ± 0.24,,
PRALIFSTDDFFFREDGAYEFNPD [N4BP2L1],2.95 ± 0.41,3.66 ± 0.48,,
CSFSIERILGLDQKKDCVPLMKPH [HESX1],2.33 ± 0.19,2.43 ± 0.23,,
LINYQDDAELATRAIPELTKLLND [CTNNB1],3.61 ± 0.37,3.59 ± 0.31,,
TLNVDRKEKCVSLPDCCHGSELRD [DLC1],4.15 ± 0.1,4.26 ± 0.15,,
HVIGEDAACIAYIRLTQYIDGQGR [CAMK2B],2.15 ± 0.21,2.08 ± 0.2,,

Sequence,protein stability index [1],protein stability index [2],protein stability index [3],protein stability index [4]
MFLHPVDYGRKAEELLWRKVYYEV [SMG5],2.45 ± 0.59,2.11 ± 0.22,,
AQVPPAAPHHHHHHSHSGPEISRI [PLK2],4.09 ± 0.073,4.1 ± 0.13,,
LHRTEGELQKIVQAGDKDLDGQLD [SLC25A25],5.58 ± 0.21,5.55 ± 0.31,,
EEEAGQTSIEPSKSSIIPFRALKR [ZER1],4.87 ± 0.26,5.09 ± 0.16,,
AAGRVCRPPGPAGTEQSRGLGHGS [CPOX],4.44 ± 0.25,4.53 ± 0.4,,
LLADLKKCGDLECEALINRVSAMR [MIA2],2.53 ± 0.23,2.55 ± 0.32,,
VLICVIVFIIILFIVLFATGAFS [VAMP8],,,4.42 ± 0.23,4.34 ± 0.15
RPLCAQGDWHSPTLIREKSFGACL [ELOA2],2.53 ± 0.19,2.6 ± 0.21,,
TVLENEDDMLLFDEQEKGIVTKFY [FAN1],3.65 ± 0.12,3.72 ± 0.26,,
ERSGCALTDAVAPGNKGRGQRGNT [TCF25],5.22 ± 0.11,5.23 ± 0.13,,
FSHITSARKARKYEIPHFRLKKVE [PHTF1],2.53 ± 0.47,2.82 ± 0.4,,
GVGGKRSSKSDADSGFLGLRPTSV [NOP53],4.16 ± 0.44,4.03 ± 0.27,,
TWWIMFLSTFSVPYFLFQHWATGY [SOAT1],3.18 ± 0.29,2.77 ± 0.51,,
GATVGRKSRRSRSESETSTMAAKK [C18orf25],5.23 ± 0.31,5.48 ± 0.27,,
NHPDLAKDLTEYLKVRSHDPEEAI [PDS5B],4.7 ± 0.23,4.43 ± 0.59,,
RQKTSGPSVIQEIHQESGKAPSTD [C10orf62],5.41 ± 0.073,5.4 ± 0.057,,
GAFETVLASAYTGRLSMAAADIVN [ZBTB22],2.88 ± 0.61,2.91 ± 0.59,,
SFEHRVRGVRRTASTPTPDDKLFQ [CPN1],4.3 ± 0.31,4.37 ± 0.3,,
TPAKSLDKFIEDYLLPDTCFRMQI [OAS1],2.51 ± 0.51,2.65 ± 0.48,,
GWFVRELRVEFAAENYLSGGGPGD [FBXO33],2.14 ± 0.27,2.21 ± 0.28,,
FMSPCDKFRAKGRKPCKLMLQVVK [MCOLN1],2.26 ± 0.26,2.38 ± 0.24,,
FDYEYDWIGKQLPTPVGAVQQDPA [CSNK1G3],3.63 ± 0.2,3.65 ± 0.44,,
ASGPINFTMFLNLFGEKLSGTDAE [MYL5],2.58 ± 0.28,2.6 ± 0.4,,

Sequence,protein stability index [1],protein stability index [2],protein stability index [3],protein stability index [4]
GVSFSTVENELMISYLMFLQILVY [FAM98B],3.08 ± 0.45,3.22 ± 0.41,,
FVALKSVRVPNGGGGGGGLPISTV [CDK4],2.52 ± 0.24,2.41 ± 0.33,,
YEHYERVENGDFNWIVPGKFLAFS [CDC14A],2.34 ± 0.16,2.26 ± 0.29,,
MECYDIYSKTWTKQPDLTMVRKIG [GAN],2.14 ± 0.34,2.66 ± 0.23,,
LVKQECIKEVVEKREACHCEEVKM [FAN1],4.54 ± 0.4,4.7 ± 0.23,,
QDLDSRLRAGSSEFDSEHNLTSNE [RASAL3],5.52 ± 0.29,5.42 ± 0.19,,
HMVKISGGPRISYPLLHEWALREG [MAGEA6],2.47 ± 0.23,2.46 ± 0.22,,
TLGASSLREERGHPLHPRHRKAVH [C6orf223],4.54 ± 0.25,4.5 ± 0.098,,
NLAKEQLSRENIQSSLLETLYRNR [PPEF2],3.05 ± 0.28,3.22 ± 0.12,,
PERIYQGSSGSYFVKDPQGRIIAV [PI4K2A],2.78 ± 0.25,2.74 ± 0.46,,
GKRMEFTSSCPNVSERSFDNVRSL [CRYBA1],4.12 ± 0.3,4.17 ± 0.28,,
DRNVVTIFSAPNYCYRCGNQAAIM [PPP2CA],2.7 ± 0.79,2.11 ± 0.23,,
DSTGYMEVSLDSLDLRVKGILSSQ [EHMT1],3.08 ± 0.36,3.17 ± 0.29,,
LLERQVEMTPEKFSVLMEKLCKKG [FANCE],3.03 ± 0.26,3.36 ± 0.19,,
YRSLGSVQAPSYGARPVSSAASVY [KRT18],3.33 ± 0.23,3.17 ± 0.097,,
NFFRMFDRNTKRDVTLEASRESSK [PPP2R2C],3.74 ± 0.32,3.73 ± 0.26,,
EQAKENENGELQKIILPRSRVKG [ZC2HC1C],,,3.42 ± 0.47,3.42 ± 0.28
RCINDPYLEVLETMDNKKGRRYEA [CLCN6],3.82 ± 0.15,4.03 ± 0.32,,
ITLFLLGAAKGKEVCYEDLGCFSD [PNLIPRP1],2.74 ± 0.43,3.24 ± 0.43,,
LSAGSPPVPPGWNPNSSSGKGSGG [DLX1],4.86 ± 0.24,4.72 ± 0.1,,
